± gives the standard error. Fewer inactive variants are shown than the library holds.
B1: glmS ribozyme (parent)
chain: AUAAAAGCGCCAGAACUACAGAAAUGUAGUUGACGAGGAGGAGGUUUAUCGAAUUUUCGGCGGAUGCCUCCAAA

How the values were obtained:
Conditions in all cases: with glucosamine-6-phosphate
glucosamine-6-phosphate [1] = variants of: B1; assay: self-cleavage kobs at 40 uM GlcN6P; higher = faster cleavage; RNA array
How it was run: (§1)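 Ribozyme variants carrying barcodes were transcribed in situ on sequenced MiSeq chips by E. coli RNA polymerase and tracked at 37 °C with a hybridised Cy3 probe. They were exposed to 40 μM to 10 mM glucosamine-6-phosphate in HEPES/KCl/Mg(OAc)2 buffer. kobs came from exponential decay fits of normalised per-tile medians, and kcat and KM from weighted Michaelis–Menten fits.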

glucosamine-6-phosphate [2] = variants of: B1; assay: self-cleavage kobs at 160 uM GlcN6P; higher = faster cleavage; RNA array
How it was run: as §1

glucosamine-6-phosphate [3] = variants of: B1; assay: self-cleavage kobs at 2500 uM GlcN6P; higher = faster cleavage; RNA array
How it was run: as §1

glucosamine-6-phosphate [4] = variants of: B1; assay: self-cleavage kobs at 10000 uM GlcN6P; higher = faster cleavage; RNA array
How it was run: as §1

glucosamine-6-phosphate [5] = variants of: B1; assay: self-cleavage kobs at 640 uM GlcN6P; higher = faster cleavage; RNA array
How it was run: as §1

| Variant | self-cleavage kobs at 40 uM GlcN6P (glucosamine-6-phosphate [1]) [s⁻¹] | self-cleavage kobs at 160 uM GlcN6P (glucosamine-6-phosphate [2]) [s⁻¹] | self-cleavage kobs at 2500 uM GlcN6P (glucosamine-6-phosphate [3]) [s⁻¹] | self-cleavage kobs at 10000 uM GlcN6P (glucosamine-6-phosphate [4]) [s⁻¹] | self-cleavage kobs at 640 uM GlcN6P (glucosamine-6-phosphate [5]) [s⁻¹] |
| --- | --- | --- | --- | --- | --- |
| AUAAAAGCGCCAGAACUACAGAAAUGUAGUUGACGAGGAUGAGGUUUGUCGAAUUUUCUGCGGAUGCCUCCAAA [G40U A48G G59U] | < 1e-05 | < 1e-05 | < 1e-05 | < 1e-05 |  |
| AUAAAAGCGCCAGAACUACAGAAAUGUAGUUGACGAGGAAGAGGUUGAUCGAAUUUUCGGCGGAUGCCUCCAAA [G40A U47G] | 8.03e-05 ± 1.9e-05 | 0.000122 ± 2.3e-05 | 0.00069 ± 0.00018 | 0.00267 ± 0.0004 | 0.000547 ± 0.00011 |
| AUAAAAGCGCCAGAACUACAGAAAUGUAGUUGACGAGGAUGAGGUUUAUCUAAUUUUCGGCAGAUGCUUCCAAA [G40U G51U G62A C68U] | < 1e-05 |  |  | < 1e-05 |  |
| AUAAAAGCGCCAGAACUACAGAAAUGUAGUUGACGAGGACGAGGUUUAUCGAAUUAUCGGCCGAUGCCUCCAAA [G40C U56A G62C] | < 1e-05 |  | < 1e-05 |  |  |
| AUAAAAGCGCCAGAACUACAGAAAUGUAGUUGACGAGGAUGAGAUUUAUCGAAUUUUCGGCGGAUGCCUCCAAA [G40U G44A] | < 1e-05 | < 1e-05 |  | < 1e-05 |  |
| AUAAAAGCGCCAGAACUACAGAAAUGUAGUUGACGAGGACGAGGUUUAUCGAAUUUUGGGCGGAUGUCUCCAAA [G40C C58G C67U] | < 1e-05 |  |  |  |  |
| AUAAAAGCGCCAGAACUACAGAAAUGUAGUUGACGAGGACGAGGUUUAUCGAAUUUUCGGCGGAUGCUUCCAAA [G40C C68U] | < 1e-05 |  |  | 1.72e-05 ± 7.9e-06 |  |
| AUAAAAGCGCCAGAACUACAGAAAUGUAGUUGACGAGGUGGAGGUUUAUCGAAUUAUCGGCGGAUGCCUCCAAA [A39U U56A] | 0.000199 ± 3.1e-05 | 0.000238 ± 8.2e-05 | 0.00215 ± 0.00066 | 0.00963 ± 0.00089 |  |
| AUAAAAGCGCCAGAACUACAGAAAUGUAGUUGACGAGGACGAGGUUUAUCGAAUUUUCGGAGGAUGCCUCCAAA [G40C C61A] | < 1e-05 |  | < 1e-05 |  |  |
| AUAAAAGCGCCAGAACUACAGAAAUGUAGUUGACGAGGAUGAGGUUUAUCGAAUUUUCGGCGGUUGCCUCCAAA [G40U A64U] | < 1e-05 | < 1e-05 |  |  |  |
| AUAAAAGCGCCAGAACUACAGAAAUGUAGUUGACGAGGUGGAGGUUUAUCGAAUUUUCGGCGGAUGCCCCCAAA [A39U U69C] | 0.000261 ± 7.1e-05 |  | 0.0075 ± 0.0032 | 0.0107 ± 0.0039 |  |
| AUAAAAGCGCCAGAACUACAGAAAUGUAGUUGACGAGGAAGAGGUUCAUCGAAUUUUCGGCAGCUGCCUUCAAA [G40A U47C G62A A64C C70U] | < 1e-05 |  | < 1e-05 | < 1e-05 |  |
| AUAAAAGCGCCAGAACUACAGAAAUGUAGUUGACGAGGACGAAGUUUAUCGAAUUUUCGGCGGAUGCCUCCAAA [G40C G43A] | < 1e-05 |  |  | < 1e-05 |  |
| AUAAAAGCGCCAGAACUACAGAAAUGUAGUUGACGAGGACGACGUUUAUCGAAUUUUCGGCGGAUGCCUCCAAA [G40C G43C] | < 1e-05 | < 1e-05 | < 1e-05 | < 1e-05 |  |
| AUAAAAGCGCCAGAACUACAGAAAUGUAGUUGACGAGGACGAGGUUAAUCGAAUUUUCGGUGGAUGCCUCCAAA [G40C U47A C61U] | < 1e-05 |  |  |  |  |
| AUAAAAGCGCCAGAACUACAGAAAUGUAGUUGACGAGGACCAGGUUUAUCGAAUUUUCGGCGUAUGCCUCCAAA [G40C G41C G63U] | < 1e-05 |  |  |  |  |
| AUAAAAGCGCCAGAACUACAGAAAUGUAGUUGACGAGGAUGAGGUUUAUCGAAUUUUCGGCGGAUGUCUACAAA [G40U C67U C70A] | < 1e-05 |  |  |  |  |
| AUAAAAGCGCCAGAACUACAGAAAUGUAGUUGACGAGGAUGAGGUUUAUCAAAUUUUCGGCGGAUGCCUCCAAA [G40U G51A] | < 1e-05 |  | < 1e-05 | < 1e-05 | < 1e-05 |
| AUAAAAGCGCCAGAACUACAGAAAUGUAGUUGACGAGGAAGAAGUUUAUCGAAUUUUCGGCGGAUGCCUCCAAA [G40A G43A] | < 1e-05 |  | < 1e-05 | < 1e-05 | < 1e-05 |
| AUAAAAGCGCCAGAACUACAGAAAUGUAGUUGACGAGGAAGAUGUUUAUCGAAUUUUCGGCGGAUGCCUCCAAA [G40A G43U] | < 1e-05 | < 1e-05 |  | < 1e-05 | < 1e-05 |
| AUAAAAGCGCCAGAACUACAGAAAUGUAGUUGACGAGGUGGAGGUUUAUCGAAUUUUCGGCGGACGCCUCCAAA [A39U U65C] | 8.42e-05 ± 1.7e-05 | 0.000124 ± 2.7e-05 | 0.00149 ± 0.00024 |  | 0.00114 ± 0.00015 |
| AUAAAAGCGCCAGAACUACAGAAAUGUAGUUGACGAGGAACAGGUUUAUCGAAUUUUCGGGGGAUGCCUCCAAA [G40A G41C C61G] | < 1e-05 |  | < 1e-05 |  | < 1e-05 |
| AUAAAAGCGCCAGAACUACAGAAAUGUAGUUGACGAGGACGCGGUUUAUCGAAUUUUCGGCGGAUGCCUCCAAA [G40C A42C] | < 1e-05 | < 1e-05 | < 1e-05 | < 1e-05 | < 1e-05 |
| AUAAAAGCGCCAGAACUACAGAAAUGUAGUUGACGAGGACGAGGUUUCUCGUAUUUUCGGCGGAUGCCUCCAAA [G40C A48C A52U] | < 1e-05 |  | < 1e-05 |  | < 1e-05 |
| AUAAAAGCGCCAGAACUACAGAAAUGUAGUUGACGAGGACGAGAUUUAUCGAAUUUUCGGCGGAUGCCUCCAAA [G40C G44A] | < 1e-05 | < 1e-05 | < 1e-05 |  | < 1e-05 |
| AUAAAAGCGCCAGAACUACAGAAAUGUAGUUGACGAGGAAGAGAUUUAUCGAAUUUUCGGCGGAUGCCUUCAAA [G40A G44A C70U] | < 1e-05 |  |  | < 1e-05 |  |

Reference: the supplement of paper PMC7125110
